{
  "source": "the RNAGym collection of RNA variant scans (doi:10.1021/acssynbio.7b00057)",
  "parents": {"B1": {"name": "Pistol ribozyme (parent)", "chain": "GGGUCGUUGUUCCAUAAUCGCGUGGAUAUGGCACGCAAGUUUCUACCGGGCACCGUAAAUGUCCGACUGGAGCCGUUCGGGCGGCUAUAAACAGACCUCAGGCCCGAAGCGUGGCGGCACCUGCCGCCGGUGGUAAAAAAGAUCGGAAGAGCACACGUCU"}},
  "data": [
    {"variants_of": "B1", "test": "aptazyme ON/OFF ratio, guanine; higher = stronger switching; co-transcriptional cleavage with and without guanine", "values": [
      {"variant": "U7C U8A U10C U11G", "aptazyme ON/OFF ratio": 1.34},
      {"variant": "U7C U8A U11C C12A C13G", "aptazyme ON/OFF ratio": 1.18},
      {"variant": "U7C U8A U11C C12A C13U", "aptazyme ON/OFF ratio": 1.25},
      {"variant": "U7C U8A U11C C12A C13A", "aptazyme ON/OFF ratio": 1.29},
      {"variant": "U7C U8A U10A C12U", "aptazyme ON/OFF ratio": 1.13},
      {"variant": "U7C U8A U10A C12G", "aptazyme ON/OFF ratio": 1.19},
      {"variant": "U7C U8A U10A C12A", "aptazyme ON/OFF ratio": 1.3},
      {"variant": "U7C U8A G9U U10G U11G C12G C13G", "aptazyme ON/OFF ratio": 1.14},
      {"variant": "U7C U8A G9U U10G U11G C12G C13A", "aptazyme ON/OFF ratio": 1.21},
      {"variant": "U7C U8A G9U U10G U11G C12G C13U", "aptazyme ON/OFF ratio": 1.14},
      {"variant": "U7C U8A U10G U11C C12G C13A", "aptazyme ON/OFF ratio": 1.3},
      {"variant": "U7C U8A U10G U11C C12G C13U", "aptazyme ON/OFF ratio": 1.38},
      {"variant": "U7C U8A U10G U11C C12G C13G", "aptazyme ON/OFF ratio": 1.14},
      {"variant": "U7C U8A U10G U11C C13G", "aptazyme ON/OFF ratio": 1.08},
      {"variant": "U7C U8A U10G U11C C13U", "aptazyme ON/OFF ratio": 1.05},
      {"variant": "U7C U8A U10G U11C C13A", "aptazyme ON/OFF ratio": 1.08},
      {"variant": "U7C U8A U10G U11A C12U C13G", "aptazyme ON/OFF ratio": 1.24},
      {"variant": "U7C U8A U10G U11A C12U C13A", "aptazyme ON/OFF ratio": 1.3},
      {"variant": "U7C U8A U10G U11A C12U C13U", "aptazyme ON/OFF ratio": 1.33},
      {"variant": "U7C U8A U10A U11A C13U", "aptazyme ON/OFF ratio": 1.17},
      {"variant": "U7C U8A U10A U11A C13A", "aptazyme ON/OFF ratio": 1.17},
      {"variant": "U7C U8A U10A U11A C13G", "aptazyme ON/OFF ratio": 1.19},
      {"variant": "U7C U8A U10G C12G", "aptazyme ON/OFF ratio": 1.34},
      {"variant": "U7C U8A U10G C12U", "aptazyme ON/OFF ratio": 1.34},
      {"variant": "U7C U8A U10G C12A", "aptazyme ON/OFF ratio": 1.21},
      {"variant": "U7C U8A G9U U10G U11C", "aptazyme ON/OFF ratio": 1.07},
      {"variant": "U7C U8A G9U U10G U11A", "aptazyme ON/OFF ratio": 1.05},
      {"variant": "U7C U8A G9U U10G U11G", "aptazyme ON/OFF ratio": 1.08},
      {"variant": "U7C U8A U10C U11A C12G C13G", "aptazyme ON/OFF ratio": 1.25},
      {"variant": "U7C U8A U10C U11A C12G C13A", "aptazyme ON/OFF ratio": 1.14},
      {"variant": "U7C U8A U10C U11A C12G C13U", "aptazyme ON/OFF ratio": 1.09},
      {"variant": "U7C U8A U10C C13A", "aptazyme ON/OFF ratio": 1.09},
      {"variant": "U7C U8A U10C C13G", "aptazyme ON/OFF ratio": 1.22},
      {"variant": "U7C U8A U10C C13U", "aptazyme ON/OFF ratio": 3.34},
      {"variant": "U7C U8A U10C U11C C12U C13G", "aptazyme ON/OFF ratio": 1.05},
      {"variant": "U7C U8A U10C U11C C12U C13U", "aptazyme ON/OFF ratio": 1.06},
      {"variant": "U7C U8A U10C U11C C12U C13A", "aptazyme ON/OFF ratio": 1.06},
      {"variant": "U7C U8A U10A U11A C12G C13U", "aptazyme ON/OFF ratio": 1.23},
      {"variant": "U7C U8A U10A U11A C12G C13G", "aptazyme ON/OFF ratio": 1.31},
      {"variant": "U7C U8A U10A U11A C12G C13A", "aptazyme ON/OFF ratio": 1.23},
      {"variant": "U7C U8A U10A U11G C12U C13A", "aptazyme ON/OFF ratio": 1.18},
      {"variant": "U7C U8A U10A U11G C12U C13U", "aptazyme ON/OFF ratio": 1.2},
      {"variant": "U7C U8A U10A U11G C12U C13G", "aptazyme ON/OFF ratio": 1.29},
      {"variant": "U7C U8A G9U U10G U11G C13A", "aptazyme ON/OFF ratio": 1.13},
      {"variant": "U7C U8A G9U U10G U11G C13U", "aptazyme ON/OFF ratio": 1.06},
      {"variant": "U7C U8A G9U U10G U11G C13G", "aptazyme ON/OFF ratio": 1.04},
      {"variant": "U7C U8A U10G U11A C12A C13A", "aptazyme ON/OFF ratio": 1.14},
      {"variant": "U7C U8A U10G U11A C12A C13U", "aptazyme ON/OFF ratio": 1.24},
      {"variant": "U7C U8A U10G U11A C12A C13G", "aptazyme ON/OFF ratio": 1.08},
      {"variant": "U7C U8A G9U U11G C12A C13U", "aptazyme ON/OFF ratio": 1.2},
      {"variant": "U7C U8A G9U U11G C12A C13A", "aptazyme ON/OFF ratio": 1.12},
      {"variant": "U7C U8A G9U U11G C12A C13G", "aptazyme ON/OFF ratio": 1.16},
      {"variant": "U7C U8A G9U U11G C13G", "aptazyme ON/OFF ratio": 1.02},
      {"variant": "U7C U8A G9U U11G C13A", "aptazyme ON/OFF ratio": 1.17},
      {"variant": "U7C U8A G9U U11G C13U", "aptazyme ON/OFF ratio": 1.17},
      {"variant": "U7C U8A U10A U11A", "aptazyme ON/OFF ratio": 1.14},
      {"variant": "U7C U8A U10A U11G", "aptazyme ON/OFF ratio": 1.22},
      {"variant": "U7C U8A U10A U11C", "aptazyme ON/OFF ratio": 1.05},
      {"variant": "U7C U8A U10A U11C C12G C13A", "aptazyme ON/OFF ratio": 1.15},
      {"variant": "U7C U8A U10A U11C C12G C13U", "aptazyme ON/OFF ratio": 1.13},
      {"variant": "U7C U8A U10A U11C C12G C13G", "aptazyme ON/OFF ratio": 1.22},
      {"variant": "U7C U8A G9U U10C U11G C13G", "aptazyme ON/OFF ratio": 1.04},
      {"variant": "U7C U8A G9U U10C U11G C13A", "aptazyme ON/OFF ratio": 1.18},
      {"variant": "U7C U8A G9U U10C U11G C13U", "aptazyme ON/OFF ratio": 1.19},
      {"variant": "U7C U8A G9U U11G C12G C13U", "aptazyme ON/OFF ratio": 1.14},
      {"variant": "U7C U8A G9U U11G C12G C13G", "aptazyme ON/OFF ratio": 1.16},
      {"variant": "U7C U8A G9U U11G C12G C13A", "aptazyme ON/OFF ratio": 1.14},
      {"variant": "U7C U8A U11A C12U C13U", "aptazyme ON/OFF ratio": 1.24},
      {"variant": "U7C U8A U11A C12U C13G", "aptazyme ON/OFF ratio": 1.15},
      {"variant": "U7C U8A U11A C12U C13A", "aptazyme ON/OFF ratio": 1.16},
      {"variant": "U7C U8A U10A U11C C12U C13G", "aptazyme ON/OFF ratio": 1.04},
      {"variant": "U7C U8A U10A U11C C12U C13U", "aptazyme ON/OFF ratio": 1.04},
      {"variant": "U7C U8A U10A U11C C12U C13A", "aptazyme ON/OFF ratio": 1.08},
      {"variant": "U7C U8A G9U U10G U11A C12A", "aptazyme ON/OFF ratio": 1.34},
      {"variant": "U7C U8A G9U U10G U11A C12G", "aptazyme ON/OFF ratio": 1.21},
      {"variant": "U7C U8A G9U U10G U11A C12U", "aptazyme ON/OFF ratio": 1.06},
      {"variant": "U7C U8A U10A C12G C13G", "aptazyme ON/OFF ratio": 1.22},
      {"variant": "U7C U8A U10A C12G C13A", "aptazyme ON/OFF ratio": 1.32},
      {"variant": "U7C U8A U10A C12G C13U", "aptazyme ON/OFF ratio": 1.26},
      {"variant": "U7C U8A U10G U11A", "aptazyme ON/OFF ratio": 1.06},
      {"variant": "U7C U8A U10G U11G", "aptazyme ON/OFF ratio": 1.24},
      {"variant": "U7C U8A U10G U11C", "aptazyme ON/OFF ratio": 1.07},
      {"variant": "U7C U8A U10G C12U C13U", "aptazyme ON/OFF ratio": 1.24},
      {"variant": "U7C U8A U10G C12U C13A", "aptazyme ON/OFF ratio": 1.34}
    ]}
  ]
}
